Residue numbers refer to the chain shown, from its start. Names may count otherwise.

The data set deals with tet operator sequence. The data set can be described thus: β-galactosidase activity of a tetracycline-regulated promoter in transformed E. coli with revTetR, in the presence and absence of anhydrotetracycline (atc). The format is cell-based, Escherichia coli. The following applies: for β-Galactosidase Activity, Cultured Without ATC: RevTetR isolate cultured in the absence of anhydrotetracycline (ATC); for β-Galactosidase Activity, Cultured With ATC: RevTetR isolate cultured in the presence of anhydrotetracycline (ATC). In outline:
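TetR(BD) chimera mutants (TetR(B) residues 1–50, TetR(D) 51–208) expressed in E. coli regulating a tet operator-controlled lacZ. β-Galactosidase measured in Miller units at 28 °C and 37 °C with and without anhydrotetracycline; reported as percent of maximal expression without Tet repressor.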

B1: TetRrevAtc4-53: revTetR(BD) D53F L55M I59S H63Q (protein)
chain: MSRLDKSKVINSALELLNEVGIEGLTTRKLAQKLGVEQPTLYWHVKNKRALLFAMAVESLARQHDYSLPAAGESWQSFLRNNAMSFRRALLRYRDGAKVHLGTRPDEKQYDTVETQLRFMTENGFSLRDGLYAISAVSHFTLGAVLEQQEHTAALTDRPAAPDENLPPLLREALQIMDSDDGEQAFLHGLESLIRGFEVQLTALLQIV
modifications: Modified tetracycline repressor
notes: revTetR(BD) D53F L55M I59S H63Q
Regarding B1, the “β-Galactosidase Activity, Cultured Without ATC” value is 87.055 and the “β-Galactosidase Activity, Cultured With ATC” value is listed as 6.945.

B2: TetRrev6-26: revTetR(BD) Y93F G96W A97E H100N (protein)
chain: B1 chain with F53D, M55L, S59I, Q63H, Y93F, G96W, A97E, H100N
modifications: Modified tetracycline repressor
notes: revTetR(BD) Y93F G96W A97E H100N
Regarding B2, the “β-Galactosidase Activity, Cultured Without ATC” value is given as 53.6535 and the “β-Galactosidase Activity, Cultured With ATC” value is given as 6.9688.

B3: TetRrevAtc4-9: revTetR(BD) L52M A56P V57L E58V L60L H188Y (protein)
chain: B1 chain with L52M, F53D, A56P, V57L, E58V, S59I, Q63H, H188Y
modifications: Modified tetracycline repressor
notes: revTetR(BD) L52M A56P V57L E58V L60L H188Y
With B3, the “β-Galactosidase Activity, Cultured Without ATC” value was 97.1039 and the “β-Galactosidase Activity, Cultured With ATC” value stood at 1.8695.

B4: TetRrev6-34: revTetR(BD) R94L D95A H100 (protein)
chain: B1 chain with F53D, M55L, S59I, Q63H, R94L, D95A, H100Q
modifications: H100 change unspecified; Modified tetracycline repressor
notes: revTetR(BD) R94L D95A H100
With B4, the “β-Galactosidase Activity, Cultured Without ATC” value turned out to be 85.725 and the “β-Galactosidase Activity, Cultured With ATC” value was determined as 40.254.

B5: TetRrev6-13: revTetR(BD) G96R L101I (protein)
chain: B1 chain with F53D, M55L, S59I, Q63H, G96R, L101I
modifications: Modified tetracycline repressor
notes: revTetR(BD) G96R L101I
Regarding B5, the “β-Galactosidase Activity, Cultured Without ATC” value came out at 15.7835 and the “β-Galactosidase Activity, Cultured With ATC” value stood at 2.5043.

B6: TetRrev6-27: revTetR(BD) A71T G96E (protein)
chain: B1 chain with F53D, M55L, S59I, Q63H, A71T, G96E
modifications: Modified tetracycline repressor
notes: revTetR(BD) A71T G96E
Turning to B6, the “β-Galactosidase Activity, Cultured Without ATC” value came out at 108.105 and the “β-Galactosidase Activity, Cultured With ATC” value is 44.43.

B7: TetRrevAtc4-61: revTetR(BD) L51L A56V I59H R62L (protein)
chain: B1 chain with F53D, M55L, A56V, S59H, R62L, Q63H
modifications: Modified tetracycline repressor
notes: revTetR(BD) L51L A56V I59H R62L
Take B7: the “β-Galactosidase Activity, Cultured Without ATC” value came out at 88.785 and the “β-Galactosidase Activity, Cultured With ATC” value was 23.831.

B8: TetRrevAtc4-67: revTetR(BD) K48K D53Y A56G E58G (protein)
chain: B1 chain with F53Y, M55L, A56G, E58G, S59I, Q63H
modifications: Modified tetracycline repressor
notes: revTetR(BD) K48K D53Y A56G E58G
Take B8: the “β-Galactosidase Activity, Cultured Without ATC” value is recorded as 61.815 and the “β-Galactosidase Activity, Cultured With ATC” value is listed as 12.616.

B9: TetRrevAtc4-71: revTetR(BD) D53T L55M 56P A61S (protein)
chain: B1 chain with F53T, A56P, S59I, A61S, Q63H
modifications: Modified tetracycline repressor
notes: revTetR(BD) D53T L55M 56P A61S
On to B9, for which the “β-Galactosidase Activity, Cultured Without ATC” value was 70.197 and the “β-Galactosidase Activity, Cultured With ATC” value is reported as 7.372.

B10: TetRrev6-23: revTetR(BD) D95E A97E (protein)
chain: B1 chain with F53D, M55L, S59I, Q63H, D95E, A97E
modifications: Modified tetracycline repressor
notes: revTetR(BD) D95E A97E
Turning to B10, the “β-Galactosidase Activity, Cultured Without ATC” value worked out at 101 and the “β-Galactosidase Activity, Cultured With ATC” value came out at 49.

B11: TetRrevAtc4-7: revTetR(BD) I59R L55L A61E H64N (protein)
chain: B1 chain with F53D, M55L, S59R, A61E, Q63H, H64N
modifications: Modified tetracycline repressor
notes: revTetR(BD) I59R L55L A61E H64N
On to B11, for which the “β-Galactosidase Activity, Cultured Without ATC” value is recorded as 84.416 and the “β-Galactosidase Activity, Cultured With ATC” value was 27.649.

B12: TetRrevAtc4-9b: revTetR(BD) A56P V57L E58V L60L (protein)
chain: B1 chain with F53D, M55L, A56P, V57L, E58V, S59I, Q63H
modifications: Modified tetracycline repressor
notes: revTetR(BD) A56P V57L E58V L60L
Take B12: the “β-Galactosidase Activity, Cultured Without ATC” value is reported as 107.982 and the “β-Galactosidase Activity, Cultured With ATC” value was 1.0594.

B13: TetRrev04-4: revTetR(BD) G96E V113A (protein)
chain: B1 chain with F53D, M55L, S59I, Q63H, G96E, V113A
modifications: Modified tetracycline repressor
notes: revTetR(BD) G96E V113A
For the molecule B13, the “β-Galactosidase Activity, Cultured Without ATC” value is 99.655 and the “β-Galactosidase Activity, Cultured With ATC” value was found to be 19.878.

B14: TetRrevDox4-2: revTetR(BD) D53E A54S I59M A61P (protein)
chain: B1 chain with F53E, A54S, M55L, S59M, A61P, Q63H
modifications: Modified tetracycline repressor
notes: revTetR(BD) D53E A54S I59M A61P
For B14, the “β-Galactosidase Activity, Cultured Without ATC” value is given as 58.776 and the “β-Galactosidase Activity, Cultured With ATC” value turned out to be 9.547.

B15: TetRrev6-17: revTetR(BD) R94G G96W (protein)
chain: B1 chain with F53D, M55L, S59I, Q63H, R94G, G96W
modifications: Modified tetracycline repressor
notes: revTetR(BD) R94G G96W
For the molecule B15, the “β-Galactosidase Activity, Cultured Without ATC” value was 56.5081 and the “β-Galactosidase Activity, Cultured With ATC” value was 12.5.

B16: TetRrev6-32: revTetR(BD) L79V A97T K98R V99G (protein)
chain: B1 chain with F53D, M55L, S59I, Q63H, L79V, A97T, K98R, V99G
modifications: Modified tetracycline repressor
notes: revTetR(BD) L79V A97T K98R V99G
With B16, the “β-Galactosidase Activity, Cultured Without ATC” value is 79.3731 and the “β-Galactosidase Activity, Cultured With ATC” value is listed as 3.789.

B17: TetRrev6-3: revTetR(BD) V99G H100P (protein)
chain: B1 chain with F53D, M55L, S59I, Q63H, V99G, H100P
modifications: Modified tetracycline repressor
notes: revTetR(BD) V99G H100P
As for B17, the “β-Galactosidase Activity, Cultured Without ATC” value is reported as 23.0695 and the “β-Galactosidase Activity, Cultured With ATC” value is 1.3657.

B18: TetRrevDox4-1: revTetR(BD) D53E A54S A61P (protein)
chain: B1 chain with F53E, A54S, M55L, S59I, A61P, Q63H
modifications: Modified tetracycline repressor
notes: revTetR(BD) D53E A54S A61P
Take B18: the “β-Galactosidase Activity, Cultured Without ATC” value came out at 36.03 and the “β-Galactosidase Activity, Cultured With ATC” value amounted to 5.627.

B19: TetRrev6-33: revTetR(BD) A97T K98R V99G (protein)
chain: B1 chain with F53D, M55L, S59I, Q63H, A97T, K98R, V99G
modifications: Modified tetracycline repressor
notes: revTetR(BD) A97T K98R V99G
For B19, the “β-Galactosidase Activity, Cultured Without ATC” value was found to be 108.964 and the “β-Galactosidase Activity, Cultured With ATC” value is 2.984.

B20: TetRrevAtc4-6: revTetR(BD) D53Y L55L A56P R62L (protein)
chain: B1 chain with F53Y, M55L, A56P, S59I, R62L, Q63H
modifications: Modified tetracycline repressor
notes: revTetR(BD) D53Y L55L A56P R62L
For B20, the “β-Galactosidase Activity, Cultured Without ATC” value is listed as 108.478 and the “β-Galactosidase Activity, Cultured With ATC” value is on record as 23.873.

B21: TetRrev6-25: revTetR(BD) Y93S D95E G102A (protein)
chain: B1 chain with F53D, M55L, S59I, Q63H, Y93S, D95E, G102A
modifications: Modified tetracycline repressor
notes: revTetR(BD) Y93S D95E G102A
For B21, the “β-Galactosidase Activity, Cultured Without ATC” value stood at 42.8584 and the “β-Galactosidase Activity, Cultured With ATC” value was 4.136.

B22: TetRrev04-1: revTetR(BD) G96E K98T (protein)
chain: B1 chain with F53D, M55L, S59I, Q63H, G96E, K98T
modifications: Modified tetracycline repressor
notes: revTetR(BD) G96E K98T
B22: the “β-Galactosidase Activity, Cultured Without ATC” value came out at 102.092 and the “β-Galactosidase Activity, Cultured With ATC” value is recorded as 44.145.

B23: TetRrev6-31: revTetR(BD) G96Q G102S (protein)
chain: B1 chain with F53D, M55L, S59I, Q63H, G96Q, G102S
modifications: Modified tetracycline repressor
notes: revTetR(BD) G96Q G102S
In the case of B23, the “β-Galactosidase Activity, Cultured Without ATC” value was found to be 55.658 and the “β-Galactosidase Activity, Cultured With ATC” value is given as 35.26.

B24: TetRrev6-2: revTetR(BD) D95G G96R H100L (protein)
chain: B1 chain with F53D, M55L, S59I, Q63H, D95G, G96R, H100L
modifications: Modified tetracycline repressor
notes: revTetR(BD) D95G G96R H100L
As for B24, the “β-Galactosidase Activity, Cultured Without ATC” value stood at 95.487 and the “β-Galactosidase Activity, Cultured With ATC” value was 18.3.

B25: TetRrevAtc4-70: revTetR(BD) D53A A61P (protein)
chain: B1 chain with F53A, M55L, S59I, A61P, Q63H
modifications: Modified tetracycline repressor
notes: revTetR(BD) D53A A61P
Consider B25, for which the “β-Galactosidase Activity, Cultured Without ATC” value is given as 16.119 and the “β-Galactosidase Activity, Cultured With ATC” value came out at 11.125.

B26: TetRrev6-35: revTetR(BD) D95Y V99E (protein)
chain: B1 chain with F53D, M55L, S59I, Q63H, D95Y, V99E
modifications: Modified tetracycline repressor
notes: revTetR(BD) D95Y V99E
In the case of B26, the “β-Galactosidase Activity, Cultured Without ATC” value was 74.8797 and the “β-Galactosidase Activity, Cultured With ATC” value worked out at 7.0255.

The values above are taken from patent publication US20030186281A1, “Modified tetracycline repressor protein compositions and methods of use” (priority 2001, published 2003).
